The record followed here is US20250034268A1.

Test [1] concerns the target human BCMA expressed on the cell surface (human) (UniProt Q02223). The test is described as follows: flow cytometry on MM.1s cells.
Test [2] shares this target. The test is described as follows: flow cytometry on RPMI8226 cells. On the technique in general: Flow cytometry measures light scatter and fluorescence of single cells or particles in a stream.
In test [3] the target is cynomolgus monkey BCMA expressed on CHO GS cells (cynomolgus monkey). The experiment in a line: flow cytometry on cynoBCMA-CHO-GS cells.
For test [4], the target named is human BCMA expressed on the cell surface (human) (UniProt Q02223). The experiment in a line: flow cytometry on U266 cells.
Test [5] has the same target. The test is described as follows: flow cytometry on L363 cells.
Test [6] has as its target mouse BCMA expressed on CHO GS cells (mouse) (UniProt O88472). The test is described as follows: flow cytometry on mBCMA-CHO-GS cells.
Test [7] concerns the target human BCMA expressed on the cell surface (human) (UniProt Q02223). The experiment in a line: flow cytometry on H929 cells.
Test [8] shares this target. The test is described as follows: flow cytometry on AMO1 cells.
Test [9] has the same target. The test is described as follows: flow cytometry on hBCMA-CHO-GS cells.

Sequence of human BCMA expressed on the cell surface (human) (Q02223 whole entry): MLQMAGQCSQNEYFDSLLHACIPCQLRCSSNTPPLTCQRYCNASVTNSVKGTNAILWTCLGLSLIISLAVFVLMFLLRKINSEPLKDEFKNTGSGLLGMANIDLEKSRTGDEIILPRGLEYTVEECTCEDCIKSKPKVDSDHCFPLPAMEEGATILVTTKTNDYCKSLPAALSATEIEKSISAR
Sequence of mouse BCMA expressed on CHO GS cells (mouse) (O88472 whole entry): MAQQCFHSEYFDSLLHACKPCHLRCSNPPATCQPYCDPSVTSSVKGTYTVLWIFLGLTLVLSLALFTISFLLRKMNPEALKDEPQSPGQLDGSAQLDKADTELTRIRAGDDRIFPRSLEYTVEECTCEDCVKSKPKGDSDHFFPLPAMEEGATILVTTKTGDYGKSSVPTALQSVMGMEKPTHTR
Sequence of cynomolgus monkey BCMA expressed on CHO GS cells (cynomolgus monkey) (chain, as listed by the source): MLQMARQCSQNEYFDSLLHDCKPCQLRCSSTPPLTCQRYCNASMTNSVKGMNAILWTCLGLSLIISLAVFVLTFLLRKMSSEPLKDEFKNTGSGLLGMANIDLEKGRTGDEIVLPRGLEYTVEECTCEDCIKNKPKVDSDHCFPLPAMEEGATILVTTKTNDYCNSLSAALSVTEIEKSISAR

“GSK PG antibody (BCMA antibody clone J6M0 of GSK, P329G human IgG1)”: the EC50 – broadly, the concentration at which the effect is half-maximal – in [1] turned out to be 7.54 nM; in test [2], 5.97 nM; in test [3], 10 nM; in [4], 8.74 nM; in test [5] it was 10.4 nM; in test [6] it was 132 nM. In addition, the EC50 in [7] is 7.69 nM; in [8], 12.9 nM; in test [9] it was 5 nM.
